Assay [1] addresses pre-S region E. coli recombinant protein (hepatitis B virus). The assay is described as follows: chemiluminescent ELISA, serially diluted antigen coated, antibody 1:2000.
Assay [2] has as its target large surface protein of hepatitis B virus (LHBS), full-length (hepatitis B virus). Description: chemiluminescent sandwich ELISA on pooled HBsAg(+) sera; pre-S1 antibody coated, pre-S2 antibody detecting (platform 1).
Assay [3] has the same target. Description: chemiluminescent sandwich ELISA on pooled HBsAg(+) sera; pre-S1 antibody coated, HBS antibody detecting (platform 2).

pre-S region E. coli recombinant protein (hepatitis B virus), sequence (P03141 2-174): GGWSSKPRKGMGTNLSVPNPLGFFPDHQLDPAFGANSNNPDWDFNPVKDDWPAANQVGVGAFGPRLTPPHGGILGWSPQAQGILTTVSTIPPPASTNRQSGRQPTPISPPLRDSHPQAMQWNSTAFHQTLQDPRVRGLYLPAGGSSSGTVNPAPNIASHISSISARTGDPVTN

B1: pre-S2 monoclonal antibody (antibody, V domains shown)
VH: QVQLQQPGTELVKPGTSVKLSCKASGYTFTSYWMHWVKLRPGQGFEWIGEINPSNGITNYNEKFKRKATLTVDKSSTTAYMQLSSLTFEDSAVYYCTIGYDYGSNYEAMDFWGQGTSVTVSS
VL: DIVMTQAAFSNPVTLGTSASMSCRSSKSLLHSNGITYLYWYLQKPGQSPQLLIYQMSNLASGVPDRFSSGGSGTDFTLRISRVEAEDVGVYYCAQNLELPWTFGGGTKLEIK
Regarding B1, in assay [1], the limit of linearity (LOL) was 1.56 ng/mL and the limit of quantification (LOQ) was determined as 0.04 ng/mL. This molecule came in with a limit of quantification (LOQ) in assay [2] of 13.5 ng/mL.

B2: HBS monoclonal antibody (antibody, V domains shown)
VH: VQLQQSGPELVKPGASVKMSCKASGYTLTDYVIGWVKQRTGQGLEWIGEVYPGSVYTSYNEKFKGKATLTADKSSNTAYMQLSGLTSDDSAVYFCAYDGYSPFDYWGQGTTLTVSS
VL: NIVMTQSPKSMSMSVGERVTLTCKASENVGTYVSWFQQKPGQSPKLLIYGASNRYIGVPDRFTGSGSATDFTLTISSVQAEDLAEYHCGQSYNYPHTFGGGTKLVIKR
Consider B2, for which the limit of quantification (LOQ) in assay [3] stood at 1.7 ng/mL.

The values are drawn from US20230018242A1.
